Literature values, collected in paper PMC3161823.
pKd: −log10 of the molar value.

Target: Complement factor H (Homo sapiens) (UniProt P08603)
Sequence (P08603 19-1231): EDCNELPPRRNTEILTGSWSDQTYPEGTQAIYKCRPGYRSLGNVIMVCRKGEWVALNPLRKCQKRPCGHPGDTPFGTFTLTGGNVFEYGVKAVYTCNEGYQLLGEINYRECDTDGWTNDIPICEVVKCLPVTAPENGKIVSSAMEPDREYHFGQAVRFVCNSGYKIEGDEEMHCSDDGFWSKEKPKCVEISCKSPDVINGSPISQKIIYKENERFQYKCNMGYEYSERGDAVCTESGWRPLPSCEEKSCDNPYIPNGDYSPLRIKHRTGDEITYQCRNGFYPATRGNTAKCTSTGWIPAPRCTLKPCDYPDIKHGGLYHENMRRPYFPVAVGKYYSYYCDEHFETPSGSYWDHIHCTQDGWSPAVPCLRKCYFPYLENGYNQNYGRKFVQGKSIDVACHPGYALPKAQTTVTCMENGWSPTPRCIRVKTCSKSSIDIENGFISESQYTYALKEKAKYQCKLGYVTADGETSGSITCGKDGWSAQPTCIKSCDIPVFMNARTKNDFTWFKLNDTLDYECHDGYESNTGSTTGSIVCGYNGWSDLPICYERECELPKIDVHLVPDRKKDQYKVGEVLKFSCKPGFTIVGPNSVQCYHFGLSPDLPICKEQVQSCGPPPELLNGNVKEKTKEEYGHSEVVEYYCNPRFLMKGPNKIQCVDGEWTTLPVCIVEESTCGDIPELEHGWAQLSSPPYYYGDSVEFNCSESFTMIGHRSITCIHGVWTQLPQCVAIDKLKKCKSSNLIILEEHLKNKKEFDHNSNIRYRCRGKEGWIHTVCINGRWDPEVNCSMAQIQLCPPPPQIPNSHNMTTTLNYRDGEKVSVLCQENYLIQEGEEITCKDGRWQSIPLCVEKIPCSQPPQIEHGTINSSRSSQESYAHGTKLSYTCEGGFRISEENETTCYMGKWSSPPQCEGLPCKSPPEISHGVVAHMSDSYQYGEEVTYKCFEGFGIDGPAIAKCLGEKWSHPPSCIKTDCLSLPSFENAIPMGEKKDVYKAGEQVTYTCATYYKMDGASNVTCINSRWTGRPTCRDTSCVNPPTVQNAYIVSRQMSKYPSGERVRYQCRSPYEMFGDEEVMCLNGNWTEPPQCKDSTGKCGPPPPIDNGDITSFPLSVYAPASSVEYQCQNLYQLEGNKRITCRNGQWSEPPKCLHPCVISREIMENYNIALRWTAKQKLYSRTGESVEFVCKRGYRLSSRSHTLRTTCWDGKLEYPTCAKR

Sequence of PTX3 (P26022 18-381): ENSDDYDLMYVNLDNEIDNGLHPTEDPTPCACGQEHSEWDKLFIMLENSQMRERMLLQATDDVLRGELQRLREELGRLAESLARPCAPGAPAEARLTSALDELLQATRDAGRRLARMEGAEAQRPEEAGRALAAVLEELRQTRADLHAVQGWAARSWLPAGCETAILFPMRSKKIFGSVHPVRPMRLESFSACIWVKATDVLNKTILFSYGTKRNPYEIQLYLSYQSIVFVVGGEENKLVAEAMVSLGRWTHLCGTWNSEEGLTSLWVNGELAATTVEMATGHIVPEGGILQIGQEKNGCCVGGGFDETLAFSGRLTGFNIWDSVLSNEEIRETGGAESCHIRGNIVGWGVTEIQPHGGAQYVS

pKd: 6.96
Substance: PTX3 (from UniProt P26022)
